Two molecules from US20190031748A1 can be followed below.

For assay [1], the target named is N-terminal biotin labelled human CGRP (Abgent Custom Synthesized Peptide #355061532) (human) (UniProt P06881). As to the kind of experiment: ELISA; Fab captured on anti-human kappa; N-terminal biotin CGRP at 20 nM; 2 h dissociation step; neutravidin-AP detection. Background: ELISA stands for enzyme-linked immunosorbent assay.
For assay [2] the target is unchanged. As to the kind of experiment: ELISA; Fab captured on anti-human kappa; N-terminal biotin CGRP at 0.009 nM; 2 h dissociation step; neutravidin-AP detection.
The target is the same in assay [3]. As to the kind of experiment: ELISA; Fab captured on anti-human kappa; N-terminal biotin CGRP at 0.027 nM; 2 h dissociation step; neutravidin-AP detection.
For assay [4] the target is unchanged. As to the kind of experiment: ELISA; Fab captured on anti-human kappa; N-terminal biotin CGRP at 0.082 nM; 2 h dissociation step; neutravidin-AP detection.
For assay [5] the target is unchanged. The assay is described as follows: ELISA; Fab captured on anti-human kappa; N-terminal biotin CGRP at 0.247 nM; 2 h dissociation step; neutravidin-AP detection.
Assay [6] has the same target. The assay is described as follows: ELISA; Fab captured on anti-human kappa; N-terminal biotin CGRP at 0.741 nM; 2 h dissociation step; neutravidin-AP detection.
Assay [7] shares this target. The assay is described as follows: ELISA; Fab captured on anti-human kappa; N-terminal biotin CGRP at 2.222 nM; 2 h dissociation step; neutravidin-AP detection.
The target is the same in assay [8]. As to the kind of experiment: ELISA; Fab captured on anti-human kappa; N-terminal biotin CGRP at 6.667 nM; 2 h dissociation step; neutravidin-AP detection.
Assay [9] deals with human CGRP (human) (UniProt P06881). The assay is described as follows: Quanterix Simoa sandwich assay; Antibody II beads capture, biotinylated CA11 detection; CGRP at 50 pg/mL.
Assay [10] shares this target. As to the kind of experiment: Quanterix Simoa sandwich assay; Antibody II beads capture, biotinylated CA11 detection; CGRP at 0.02 pg/mL.
For assay [11] the target is unchanged. As to the kind of experiment: Quanterix Simoa sandwich assay; Antibody II beads capture, biotinylated CA11 detection; CGRP at 0.07 pg/mL.
Assay [12] shares this target. As to the kind of experiment: Quanterix Simoa sandwich assay; Antibody II beads capture, biotinylated CA11 detection; CGRP at 0.21 pg/mL.
The target is the same in assay [13]. As to the kind of experiment: Quanterix Simoa sandwich assay; Antibody II beads capture, biotinylated CA11 detection; CGRP at 0.62 pg/mL.
For assay [14] the target is unchanged. As to the kind of experiment: Quanterix Simoa sandwich assay; Antibody II beads capture, biotinylated CA11 detection; CGRP at 1.85 pg/mL.
The target is the same in assay [15]. As to the kind of experiment: Quanterix Simoa sandwich assay; Antibody II beads capture, biotinylated CA11 detection; CGRP at 5.56 pg/mL.
For assay [16] the target is unchanged. The assay is described as follows: Quanterix Simoa sandwich assay; Antibody II beads capture, biotinylated CA11 detection; CGRP at 16.67 pg/mL.
Assay [17] has the same target. As to the kind of experiment: Quanterix Simoa sandwich assay; Antibody II beads capture, biotinylated CA11 detection; CGRP at 0.0076 pg/mL.

B1: CA11 Fab (Fab, V domains shown)
VH: EVQLQQSGPELVKPGASVKMSCKASGYTFTRSVMHWVKQKPGQGLEWIGYINPYNDGTKYNEKFKGKATLTSDKSSSTAYMELSSLTSEDSAVYYCAKSGNDGYWGQGTTLTVSS
VL: EIVLTQSPTTMAASPGEKITITCSASSSISSIYLHWYQQKPGFSPKVLIYRAKNLASGVPARFSGSGSGTSYSLTIGTMEAEDVATYYCQQGSTIPFTFGSGTKLEIK
Regarding B1, the A560 was determined as 1.05 A560 in [1]; 0.082 A560 in assay [2]; 0.063 A560 in assay [3]; 0.091 A560 in [4]; 0.165 A560 in [5]; 0.356 A560 in assay [6]. Also, the values for the A560 in assay [7] and in assay [8] were 0.688 A560 and 1.03 A560, respectively.

B2: CA11 antibody (mouse IgG1/kappa) (antibody, V domains shown)
VH: B1 VH
VL: EIVLTQSPTTMAASPGEKITITCSASSSISSIYLHWYQQKPGFSPKVLIYRAKNLASGVPARFSGSGSGTSYSLTIGTMEAEDVATYYCQQGSTIPFTFGSGTKLEIKR
In the case of B2, the Average AEB (AEB (average enzyme per bead)) was found to be 2.99 in assay [9]; 0.0075 in assay [10]; 0.011 in assay [11]; 0.02 in [12]; 0.06 in assay [13]; 0.13 in assay [14]. Moreover, the results for the Average AEB (AEB (average enzyme per bead)) in [15], in assay [16] and in assay [17] were 0.42, 1.18 and 0.0079, respectively.
